Measurements reported in paper PMC7800377.

Molecular target: SUN domain of human SUN1 (amino acid residues 616–812), tags removed (human)
Experiment: SEC-MALS; co-expressed and co-purified samples at >1 mg/ml on Superdex 200 Increase 10/300 GL in 20 mM Tris pH 8.0, 150 mM KCl, 2 mM DTT

KASH domain of human Nesprin-1 (KASH1, amino acid residues 8769–8797), tags removed, sequence (Q8NF91 8769-8797): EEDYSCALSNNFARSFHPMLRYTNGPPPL

- stoichiometry N (binder:target ratio (6:6)): 1
Substance: KASH domain of human Nesprin-1 (KASH1, amino acid residues 8769–8797), tags removed (from UniProt Q8NF91 8769-8797) (domain or fragment)
